# Results taken from article PMC3424314 (Journal of immunology (Baltimore, Md. : 1950), 2012).
# B1: anti-CD40 rAb with H chain C-terminal dockerin (antibody, V domains shown)
# VH: EVKLVESGGGLVQPGGSLKLSCATSGFTFSDYYMYWVRQTPEKRLEWVAYINSGGGSTYYPDTVKGRFTISRDNAKNTLYLQMSRLKSEDTAMYYCARRGLPFHAMDYWGQGTSVTVSS
# VL: DIQMTQTTSSLSASLGDRVTISCSASQGISNYLNWYQQKPDGTVKLLIYYTSILHSGVPSRFSGSGSGTDYSLTIGNLEPEDIATYYCQQFNKLPPTFGGGTKLEIK
# B2: recombinant anti-CD40 rAb (antibody, V domains shown)
# VH: B1 VH
# VL: B1 VL
# Molecular target: CD40 receptor on a stable CHO cell line (Homo sapiens, UniProt P25942)
# Assay: flow cytometry on cells
# CD40 receptor on a stable CHO cell line, sequence (P25942 21-277): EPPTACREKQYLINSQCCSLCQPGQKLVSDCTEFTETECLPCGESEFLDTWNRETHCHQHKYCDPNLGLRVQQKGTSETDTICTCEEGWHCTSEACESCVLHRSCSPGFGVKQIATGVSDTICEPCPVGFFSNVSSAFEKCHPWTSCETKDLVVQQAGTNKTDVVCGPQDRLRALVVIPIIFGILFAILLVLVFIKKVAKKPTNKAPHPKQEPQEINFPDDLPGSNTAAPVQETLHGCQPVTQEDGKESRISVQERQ
row,Binder,binding result
1,B1,binds
2,B2,binds
